Read-outs that look alike come from different tables or passages of the source.
B1: H1H1911N: human IgG1 Fc anti-EGFRvIII antibody with variable domains 1911; HCVR/LCVR SEQ ID NOs 50/58 (antibody, V domains shown)
VH: QVQLVESGGGVVQPGRSLRLSCAASGFTFSRYGIHWVRQAPGKGLEWVAVIWHDGSNKYYADSVKGRFTISRDNSKNTLYLQMTSLRAEDTAVYYCARDGLEIRDHYYYGMDVWGQGTTVTVSS
VL: DIQMTQSPSTLSASVGDRVTITCRASQSTSSWLAWYQQKPGKAPTLLIYKASSLESGVPSKFSGSGSGTEFTLTISSLQPDDFATYYCQQYNRYSRTFGQGTKVEIK
modifications: human IgG1 Fc
B2: H1H1912N: human IgG1 Fc anti-EGFRvIII antibody with variable domains 1912; HCVR/LCVR SEQ ID NOs 66/74 (antibody, V domains shown)
VH: EVQLVESGGGLVQPGRSLRLSCAASGFTFDDYAMHWVRQVPGKGLEWVSGISWNSGSIGYADSVKGRFTISRDNAKNSLYLQMNSLRAEDTALYYCAKDIHDYGKDYYYYYGMDVWGQGTTVTVSS
VL: EIALTQSPGTLSLSPGERATLSCRASQSVSSTYLAWYQQKPGQAPRLLIYGASSRATGIPDRFSGSGSGTDFTLTISRLEPEDFAVYYCQQYDSSPITFGQGTRLEIK
modifications: human IgG1 Fc
B3: H1H1913N: human IgG1 Fc anti-EGFRvIII antibody with variable domains 1913; HCVR/LCVR SEQ ID NOs 130/138 (antibody, V domains shown)
VH: QVQLQQWGAGLLKPSETLSLTCAVYGGSFSGDYWSWIRQSPGKGLEWIGEINHSGSTNYNPSLKSRVTISIDTSKNQFSLKLSSVTAADTAVYYCARGGGDYYYGMDVWGLGTTVTVSS
VL: AIQMTQSPSSLSASVGDRVTITCRASQGIGNDLGWYQQKPGKAPNLLIYATSSLQSGVPSRFSGSGSGTDFTLTISSLQPEDFATYYCLQDYNYPWTFGQGTKVEIK
modifications: human IgG1 Fc
B4: H1H2195P: human IgG1 Fc anti-EGFRvIII antibody; HCVR/LCVR SEQ ID NOs 18/26 (antibody, V domains shown)
VH: QVQLVESGGGVVQPGRSRRLSCVGSGFIFSSYGMHWVRQAPGKGLEWVALIFYDGSNEYYVDSVKGRFTISRDNSKNTLYLQMNSLRAEDTAVYYCAREGYSQRYKYYFGMDVWGQGTTVTVSS
VL: DIQMTQSPSSVSASVGDRVTITCRASQGISSWLAWYQQQPGKAPKLLIYAASSLQSGVPSRFSGSGSGTDFTLTISSLQPEDFATYYCQQTNSFPLTFGGGTKVEIKR
modifications: human IgG1 Fc

Legend:
EGFRvIII-mFc [1] = type: binding, human; details: 37° C., receptor-capture, EGFRvIII-mFc captured
Experimental: (§1) Measurements were conducted on a T100 BIACORE™ instrument. […] In the receptor-capture format, either EGFRvIII-mFc or EGFR-mFc, was captured on the BIACORE™ chip and the respective antibodies flowed over. Kinetic association (ka) and dissociation (kd) rate constants were determined by processing and fitting the data to a 1:1 binding model using Scrubber 2.0 curve fitting software. Binding dissociation equilibrium constants (KD) and dissociative half-lives (t1/2) were calculated from the kinetic rate constants as: KD (M)=kd/ka; and t1/2 (min)=ln 2/(60*kd).

EGFR-mFc [2] = target: T1, EGFR-mFc (Homo sapiens, UniProt P00533); experiment: SPR (BIACORE) binding kinetics, receptor-capture format; details: 37° C., EGFR-mFc captured, NB=no binding
Experimental: as §1

C-term biotin J-peptide = C-term biotin J-peptide (Homo sapiens, UniProt P00533, DELINS30-297G); experiment: Antibody specificity by ELISA; details: ELISA binding, avidin pre-coated plates
Experimental: (§2) To further characterize anti-hEGFRvIII mAbs, their binding specificity was examined by ELISA. […] For the junctional peptides that were linked to biotin either at C-terminal (SEQ ID NO:149) or N-terminal (SEQ ID NO:150) via a linker, plates were pre-coated with avidin. Also, coated was an irrelevant peptide (control peptide) with or without biotin at its N-terminal. Anti-EGFRvIII antibodies as well as an isotype control antibody were added to coated plates and allowed to incubate for 1 hour at 25° C. The plates were then washed and bound anti-EGFRvIII mAbs were detected with anti-human Fc antibodies conjugated with horse-radish peroxidase (HRP). […] Data analysis used a sigmoidal dose-response model within PRISM™ software.

N-term biotin J-peptide = N-term biotin J-peptide (Homo sapiens, UniProt P00533, DELINS30-297G); experiment: Antibody specificity by ELISA; details: ELISA binding, avidin pre-coated plates
Experimental: as §2

[3] = target: junctional peptide (J-peptide) (Homo sapiens, UniProt P00533, DELINS30-297G); experiment: Antibody specificity by ELISA; details: ELISA binding
Experimental: as §2

Control peptide = experiment: Antibody specificity by ELISA; details: ELISA binding, irrelevant peptide
Experimental: (§3) To further characterize anti-hEGFRvIII mAbs, their binding specificity was examined by ELISA. […] For the junctional peptides that were linked to biotin either at C-terminal (SEQ ID NO:149) or N-terminal (SEQ ID NO:150) via a linker, plates were pre-coated with avidin. Also, coated was an irrelevant peptide (control peptide) with or without biotin at its N-terminal. Anti-EGFRvIII antibodies as well as an isotype control antibody were added to coated plates and allowed to incubate for 1 hour at 25° C. The plates were then washed and bound anti-EGFRvIII mAbs were detected with anti-human Fc antibodies conjugated with horse-radish peroxidase (HRP). Plates were developed with a tetra-methyl-benzidine (TMB) substrate solution to produce a colorimetric reaction and neutralized with sulfuric acid before reading absorbance at 450 nm on a VICTOR™ X5 plate reader. Data analysis used a sigmoidal dose-response model within PRISM™ software. […] NT: Not tested. Controls I-III: As described above.

[4] = system: N-term Biotin control peptide; experiment: Antibody specificity by ELISA; details: ELISA binding, irrelevant peptide with N-terminal biotin
Experimental: as §3

HEK293 cells = experiment: FACS cell binding selectivity; type: cell-based; details: 10 μg/ml
Experimental: To determine the specificity of the anti-EGFRvIII mAbs, their binding to HEK293, HEK293 cells expressing EGFRvIII (HEK293/EGFRvIII) and A431 cells, was analyzed by fluorescence activated cell sorting (FACS). HEK293/EGFRvIII cells were prepared by transfecting HEK293 cells with neomycin resistant DNA vectors constitutively expressing full-length hEGFRvIII (SEQ ID NO:147) using LIPOFECTAMINE™ 2000 transfection reagent (INVITROGEN™). At two days post-transfection, cells were placed under G418 selection for approximately two weeks. Populations positively expressing EGFRvIII were isolated via fluorescence activated cell sorting (FACS). The HEK293 cells expressing ˜3×10^6 copies of EGFRvIII per cell were used in the experiment. Briefly, the anti-EGFRvIII antibodies at 10 μg/ml were incubated with cells for 30 minutes at room temperature, washed, incubated with secondary antibody, i.e., phycoerythrin (PE)-labeled goat F(ab′)2 against human IgG (cat #109-116-170, Jackson ImmunoResearch Laboratories), followed by a final wash before FACS analysis. In another set of experiment, anti-EGFRvIII antibodies were directly conjugated via their lysine residues with the fluorescent dye, ALEXA FLUOR® 488 Dye (INVITROGEN™), thereby eliminating the step using the secondary antibody. […] Controls I, II, III, IV and V are described above. MFI: Mean Fluorescence Intensity.

HEK293/EGFRvIII cells = experiment: Internalization of anti-EGFRvIII mAbs; type: cell-based, human; details: 37° C., 1 h
Experimental: Anti-EGFRvIII mAbs (10 ug/ml) were incubated with HEK293/[…] (see Example 7, supra) cells for 2 hours on ice followed by two PBS washes. Cells were then subjected to a 30-min incubation on ice with secondary DYLIGHT™ 488-conjugated anti-human IgG Fab fragments (Jackson ImmunoResearch Laboratories) followed by two additional PBS washes. Antibodies were allowed to internalize for 1 h at 37° C. in internalization buffer (PBS+FBS) or remained at 4° C. Cells were fixed in 4% formaldehyde, and nuclei stained with DRAQ5® DNA dye (Cell Signaling Technology, Inc.). Images were acquired at 40× on the IMAGEXPRESS™ high content system (Molecular Devices) and internalized vesicles were quantitated using Columbus software (Perkin Elmer).

EGFRvIII-mmh = EGFRvIII-mmh (Homo sapiens, UniProt P00533, DELINS30-297G); experiment: SPR (BIACORE) binding kinetics, mAb-capture format; details: 37° C., NB=no binding; for ka: analyte EGFRvIII-mmh (monomeric); for kd: analyte EGFRvIII-mmh
Experimental: as §1

EGFRvIII-mFc [5] = experiment: SPR (BIACORE) binding kinetics, mAb-capture format; parameters: species or system human; details: 37° C., NB=no binding; for ka: analyte EGFRvIII-mFc (dimeric); for kd: analyte EGFRvIII-mFc
EGFR-mmh = EGFR-mmh (Homo sapiens, UniProt P00533); experiment: SPR (BIACORE) binding kinetics, mAb-capture format; details: 37° C., NB=no binding
EGFR-mFc [6] = target: T1, EGFR-mFc; experiment: SPR (BIACORE) binding kinetics, mAb-capture format; details: 37° C., NB=no binding
[7] = directly labeled (ALEXA FLUOR 488) antibodies

Sequence of EGFRvIII-mFc (as listed by the source): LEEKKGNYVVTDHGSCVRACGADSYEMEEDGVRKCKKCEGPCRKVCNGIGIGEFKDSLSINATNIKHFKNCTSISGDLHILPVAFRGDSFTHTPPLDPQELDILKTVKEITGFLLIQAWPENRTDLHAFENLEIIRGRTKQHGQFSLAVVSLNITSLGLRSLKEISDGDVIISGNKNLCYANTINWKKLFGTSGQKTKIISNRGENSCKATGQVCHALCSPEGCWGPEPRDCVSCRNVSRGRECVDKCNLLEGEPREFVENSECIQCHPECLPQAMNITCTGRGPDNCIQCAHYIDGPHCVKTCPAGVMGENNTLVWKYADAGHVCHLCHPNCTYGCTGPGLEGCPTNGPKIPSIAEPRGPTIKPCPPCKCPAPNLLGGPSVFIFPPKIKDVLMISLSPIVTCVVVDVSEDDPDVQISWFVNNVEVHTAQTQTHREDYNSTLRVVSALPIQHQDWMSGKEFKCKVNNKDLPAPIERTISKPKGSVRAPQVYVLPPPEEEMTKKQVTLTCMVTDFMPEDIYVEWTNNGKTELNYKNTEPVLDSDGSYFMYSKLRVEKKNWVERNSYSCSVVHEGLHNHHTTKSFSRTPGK

Molecule | ka (EGFRvIII-mFc [1]) [M⁻¹ s⁻¹] | kd (EGFRvIII-mFc [1]) [s⁻¹] | ka (EGFR-mFc [2]) [M⁻¹ s⁻¹] | kd (EGFR-mFc [2]) [s⁻¹] | EC50 (C-term biotin J-peptide) [nM] | EC50 (N-term biotin J-peptide) [nM] | EC50 [3] [nM] | EC50 (Control peptide) [nM] | EC50 [4] [nM] | Parental HEK293 MFI (HEK293 cells; [7]) | Parental HEK293 MFI (HEK293 cells; secondary PE-labeled anti-Fc) | internalization (HEK293/EGFRvIII cells) | ka (EGFRvIII-mmh) [M⁻¹ s⁻¹] | kd (EGFRvIII-mmh) [s⁻¹] | ka (EGFRvIII-mFc [5]) [M⁻¹ s⁻¹] | kd (EGFRvIII-mFc [5]) [s⁻¹] | other results
B1 | 32900 | 0.000643 | 7770 | 0.00174 | > 10 | > 10 | > 10 | > 10 | > 10 | 3593 | 1812 | Internalization was also observed | – | – | – | – | –
B2 | 99000 | 0.000537 | 39900 | 0.000914 | > 10 | > 10 | > 10 | > 10 | > 10 | 3727 | – | Internalization was also observed | 18300 | 0.0164 | 20400 | 0.000971 | –
B3 | 63000 | – | 5930 | 1e-06 | – | – | – | – | – | 4801 | – | – | 163 | 0.00114 | 14000 | 0.000316 | Kd (EGFRvIII-mFc [1]): 0.0158 nM
B4 | 237000 | 2.53e-05 | 225000 | 5.2e-05 | > 10 | > 10 | > 10 | > 10 | > 10 | – | 1176 | – | 64800 | 0.000694 | 102000 | 0.000113 | ka (EGFR-mmh; analyte EGFR-mmh (monomeric)): 56600 M⁻¹ s⁻¹; kd (EGFR-mmh; analyte EGFR-mmh): 0.000523 s⁻¹; ka (EGFR-mFc [6]; analyte EGFR-mFc (dimeric)): 92000 M⁻¹ s⁻¹; kd (EGFR-mFc [6]; analyte EGFR-mFc): 0.000189 s⁻¹

Source: US11608380B2, “Anti-EGFRvIII antibodies and uses thereof” (REGENERON PHARMACEUTICALS, INC., priority 2014, dated 2023)
